Results as given in patent US6383734.
Each block holds one substance with its values, some of them ahead of it.

Legend:
[1] = biological target: recombinant His-tagged mouse PAK3 from Sf9 cells (UniProt Q61036)
[2] = biological target: myc-tagged wild type Raf-1 (UniProt P04049)
[3] = biological target: myc-tagged wild type Raf-1 (UniProt P04049); assay: cell-based or functional assay
[4] = biological target: Raf-CX (Raf modified to translocate to the plasma membrane independently of Ras) (UniProt P04049); assay: cell-based or functional assay
Raf-CR3[D338E339] = Raf-CR3[D338E339] (UniProt P04049)
[5] = biological target: Raf-CR3 (wild type), recombinant Raf-1 catalytic fragment, calmodulin binding protein fusion (UniProt P04049)

Sequence of p37, purified 37-kD Raf-1 serine 338/339 protein kinase from rat spleen (truncated PAK3) (chain, as listed by the source): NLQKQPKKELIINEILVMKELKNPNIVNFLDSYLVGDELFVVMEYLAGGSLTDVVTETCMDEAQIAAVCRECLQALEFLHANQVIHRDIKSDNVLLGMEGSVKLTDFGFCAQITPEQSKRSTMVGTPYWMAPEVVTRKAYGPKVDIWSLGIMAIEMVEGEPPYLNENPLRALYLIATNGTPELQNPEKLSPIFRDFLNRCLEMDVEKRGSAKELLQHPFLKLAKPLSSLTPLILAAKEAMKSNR
Sequence of recombinant His-tagged mouse PAK3 from Sf9 cells (Q61036 other isoform, or with tags, fused parts or gaps): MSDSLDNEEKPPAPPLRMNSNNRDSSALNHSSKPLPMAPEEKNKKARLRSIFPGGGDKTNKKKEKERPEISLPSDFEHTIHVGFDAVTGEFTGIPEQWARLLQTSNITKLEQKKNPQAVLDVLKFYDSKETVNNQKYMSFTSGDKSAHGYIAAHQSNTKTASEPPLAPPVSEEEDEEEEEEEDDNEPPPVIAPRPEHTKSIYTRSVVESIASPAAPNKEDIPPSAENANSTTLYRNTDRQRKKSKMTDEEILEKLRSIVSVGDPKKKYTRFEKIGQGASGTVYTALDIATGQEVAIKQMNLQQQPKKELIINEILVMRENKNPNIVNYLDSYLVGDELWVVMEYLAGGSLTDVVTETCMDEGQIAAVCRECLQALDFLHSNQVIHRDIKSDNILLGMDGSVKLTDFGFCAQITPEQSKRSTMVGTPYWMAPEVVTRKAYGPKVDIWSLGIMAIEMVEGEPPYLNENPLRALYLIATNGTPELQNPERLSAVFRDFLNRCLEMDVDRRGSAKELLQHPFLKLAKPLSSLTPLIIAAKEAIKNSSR

Substance: GST-Cdc42 charged with GTPγS
stimulation of the Raf-1 peptide and Raf-CR3 serine 338/339 kinase activity of PAK3 [1]: stimulated up to six-fold by co-incubation with GST-Rac-GTPγS or GST-Cdc42-GTPγS

Substance: constitutively active HA-tagged PAK3[S91,A93,A95]
increase in the amount of phosphorylated serine 338 (immunoprecipitation with phosphoserine 338-specific antibody, 9E10 blot) [2]: 2.5 and 6.5-fold increases in the amount of phosphorylated serine 338

reduction of the Ras[V12]-inducible activation of Raf-1 in COS-7 cells [3]: > 50% | reduction of the intrinsic Raf kinase activity in COS-7 cells [4]: > 70%
Substance: dominant negative HA-tagged PAK3[R278] (enzyme)

Substance: p37, purified 37-kD Raf-1 serine 338/339 protein kinase from rat spleen (truncated PAK3)
phosphorylation of Raf-CR3 (32P, SDS-PAGE, autoradiography) (Raf-CR3[D338E339]): failed to significantly phosphorylate the Raf-CR3[D338E339] mutant | phosphorylation of Raf-CR3 (32P, SDS-PAGE, autoradiography) [5]: The purified kinase phosphorylated the wild type Raf-CR3 | share of incorporated 32P in the serine 338/339 tryptic peptides [5]: Over 95% of the 32P incorporated within the phosphorylated Raf-CR3 was associated with the serine 338/339 tryptic peptides | specific activity (Raf-1 peptide phosphorylation) (Raf-1 (331-345) peptide): extremely high specific activity (19,500 pmol/min/mg)
